Reference: article PMC6565636, “Rif1 promotes association of G-quadruplex (G4) by its specific G4 binding and oligomerization activities”

Experiments:
Taz1 = target: T1, Taz1 (Schizosaccharomyces pombe (fission …, UniProt P79005 1-663)); assay: EMSA; EMSA with oligos heat-denatured and renatured in 50 mM KCl/40% PEG200 (Fig 5: 50 mM Tris-HCl pH 7.5 with KCl, NaCl or none); gel shift buffer 40 mM Hepes-KOH pH 7.6, 50 mM KCl, 1 mM EDTA, 10% glycerol, 0.01% Triton X-100; pull-down 30 min at room temperature; +++/++/+ = >50/>16/>6% shift at 1 nM Rif1; details: protein: recombinant; tags: N-term His6, C-term FLAG3; chain copies: 2; label: 32P; blunt
T1 sequence: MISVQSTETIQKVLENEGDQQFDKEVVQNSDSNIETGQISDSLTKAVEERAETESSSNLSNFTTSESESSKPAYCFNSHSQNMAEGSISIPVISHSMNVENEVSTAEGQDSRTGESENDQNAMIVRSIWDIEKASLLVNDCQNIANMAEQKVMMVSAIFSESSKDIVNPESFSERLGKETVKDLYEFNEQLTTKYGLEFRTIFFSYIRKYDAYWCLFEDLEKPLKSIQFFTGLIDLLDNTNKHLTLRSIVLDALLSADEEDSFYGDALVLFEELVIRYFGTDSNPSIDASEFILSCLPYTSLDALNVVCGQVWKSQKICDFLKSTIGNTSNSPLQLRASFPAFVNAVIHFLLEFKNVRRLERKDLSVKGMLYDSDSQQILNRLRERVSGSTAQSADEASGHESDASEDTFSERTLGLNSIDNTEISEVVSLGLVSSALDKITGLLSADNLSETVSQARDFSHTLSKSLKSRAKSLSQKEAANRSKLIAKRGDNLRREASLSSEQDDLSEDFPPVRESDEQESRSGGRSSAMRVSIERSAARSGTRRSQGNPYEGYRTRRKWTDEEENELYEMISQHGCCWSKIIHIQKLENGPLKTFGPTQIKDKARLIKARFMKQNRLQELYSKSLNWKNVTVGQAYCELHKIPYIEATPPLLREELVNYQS

[1] = target: T2, Rif1 full-length (His6-Rif1-FLAG3) (Schizosaccharomyces pombe (fission …, UniProt Q96UP3 1-1400)); assay: EMSA; KCl; text: not bound very efficiently; EMSA with oligos heat-denatured and renatured in 50 mM KCl/40% PEG200 (Fig 5: 50 mM Tris-HCl pH 7.5 with KCl, NaCl or none); gel shift buffer 40 mM Hepes-KOH pH 7.6, 50 mM KCl, 1 mM EDTA, 10% glycerol, 0.01% Triton X-100; pull-down 30 min at room temperature; +++/++/+ = >50/>16/>6% shift at 1 nM Rif1; details: protein: recombinant; tags: N-term His6, C-term FLAG3; label: 32P; hybrid G4
T2 sequence: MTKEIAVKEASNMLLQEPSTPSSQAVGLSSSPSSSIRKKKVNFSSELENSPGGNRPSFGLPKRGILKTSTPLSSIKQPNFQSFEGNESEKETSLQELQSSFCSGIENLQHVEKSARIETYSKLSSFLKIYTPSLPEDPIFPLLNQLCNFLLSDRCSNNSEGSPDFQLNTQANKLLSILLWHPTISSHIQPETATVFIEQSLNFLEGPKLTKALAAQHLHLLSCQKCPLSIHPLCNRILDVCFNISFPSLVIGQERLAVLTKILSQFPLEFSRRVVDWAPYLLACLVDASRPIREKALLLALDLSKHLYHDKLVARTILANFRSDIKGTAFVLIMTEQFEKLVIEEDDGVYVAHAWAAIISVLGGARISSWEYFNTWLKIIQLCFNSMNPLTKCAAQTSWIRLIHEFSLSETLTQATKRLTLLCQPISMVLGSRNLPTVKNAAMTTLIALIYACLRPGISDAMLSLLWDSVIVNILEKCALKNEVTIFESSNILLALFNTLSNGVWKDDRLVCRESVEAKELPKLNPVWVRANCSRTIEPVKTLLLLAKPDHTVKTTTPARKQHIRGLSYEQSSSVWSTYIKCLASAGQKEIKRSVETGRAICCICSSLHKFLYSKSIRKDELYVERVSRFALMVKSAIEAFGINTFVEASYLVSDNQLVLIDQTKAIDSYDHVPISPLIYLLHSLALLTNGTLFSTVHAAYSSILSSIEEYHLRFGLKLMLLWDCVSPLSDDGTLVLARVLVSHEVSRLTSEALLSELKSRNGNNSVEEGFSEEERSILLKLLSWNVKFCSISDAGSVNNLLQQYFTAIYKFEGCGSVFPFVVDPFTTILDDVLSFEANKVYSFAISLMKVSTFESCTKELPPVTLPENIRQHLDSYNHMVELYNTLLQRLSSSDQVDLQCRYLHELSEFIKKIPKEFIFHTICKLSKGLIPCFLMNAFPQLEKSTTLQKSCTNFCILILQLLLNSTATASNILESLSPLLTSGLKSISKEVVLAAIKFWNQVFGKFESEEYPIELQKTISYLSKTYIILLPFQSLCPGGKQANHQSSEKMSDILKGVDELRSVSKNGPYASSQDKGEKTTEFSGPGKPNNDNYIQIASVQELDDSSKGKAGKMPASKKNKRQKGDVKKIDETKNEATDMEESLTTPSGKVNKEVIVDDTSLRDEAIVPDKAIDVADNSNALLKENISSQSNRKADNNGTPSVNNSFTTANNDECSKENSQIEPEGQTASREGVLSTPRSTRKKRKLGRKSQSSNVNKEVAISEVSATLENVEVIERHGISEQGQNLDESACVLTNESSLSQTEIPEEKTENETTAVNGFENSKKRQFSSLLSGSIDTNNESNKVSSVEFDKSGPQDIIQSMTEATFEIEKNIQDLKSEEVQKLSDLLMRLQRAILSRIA

[2] = target: T2, Rif1 full-length (His6-Rif1-FLAG3); assay: EMSA; EMSA with oligos heat-denatured and renatured in 50 mM KCl/40% PEG200 (Fig 5: 50 mM Tris-HCl pH 7.5 with KCl, NaCl or none); gel shift buffer 40 mM Hepes-KOH pH 7.6, 50 mM KCl, 1 mM EDTA, 10% glycerol, 0.01% Triton X-100; pull-down 30 min at room temperature; +++/++/+ = >50/>16/>6% shift at 1 nM Rif1; details: protein: recombinant; tags: N-term His6, C-term FLAG3; label: 32P
[3] = target: T2, Rif1 full-length (His6-Rif1-FLAG3); assay: EMSA; KCl; text: poor binder; EMSA with oligos heat-denatured and renatured in 50 mM KCl/40% PEG200 (Fig 5: 50 mM Tris-HCl pH 7.5 with KCl, NaCl or none); gel shift buffer 40 mM Hepes-KOH pH 7.6, 50 mM KCl, 1 mM EDTA, 10% glycerol, 0.01% Triton X-100; pull-down 30 min at room temperature; +++/++/+ = >50/>16/>6% shift at 1 nM Rif1; details: protein: recombinant; tags: N-term His6, C-term FLAG3; label: 32P; hybrid G4

B1: Taz1BS (dsDNA)
DNA 1: TTACAGGTTACAGGTTACAGG
DNA 2: CCTGTAACCTGTAACCTGTAA
Work on B1 yielded a Kd (Taz1) of ~30 nM.

TAGGGTTAGGGTTAGGGTTAGGG (structured_DNA) [Htelo1]: no binding [1].

GGGGGGGGGG (structured_DNA) [G10]: binds [2].

TAGGGTTAGGGTTAGGGTTAGGGTT (structured_DNA) [Htelo2]: no binding [3].
